Experiment: label from the status in PepcDB records

Sequence | protein production
MVDGEVEILRGYELRLLRCTVSFPQTGSPLESQPLDGTQSGTHPHDSLITSLLSSIEAGDYLGALSSDATKLILGDSELNLVDTVDSAEQVYSELLDKVESFVVNDSSDEIDKARRAVLVMCLAIATALWFTRCNLTGSTEGSTKCSLPLRVSESKELVEWENWAKIQLMSVGSDLLGKFSNLQHLVFARLLLFKLKDLLFEITSTETFEVRSISWWLVRVLLIHQRVLQERSSSLFEMLQVYMAEAIDHFGELEKVKSYWGANLLEDEASSITSTIHLEACVLQYIYGRIDPSRLQLESAKAAASLEFSVTGALGFRTIHQVDPKAQMVLVANTSSSNGDVRLASEKADVGPYEAWGGEAPEVYMTPKLVNNESEAGKDSVPLKPVEQALILAQCLLIERGSRHDEMQRWDMAPYIEAIDSQKSTYFVLRCFCDLLRVRWESTRGRTKGRALEMMDKLVGAINKSDPGVSNRIPLCYAVHLPTIPALRKEYGELLVSCGLVGEAITIFESLELWDNLIYCYCLLGKKSAAVDLINARLLERPNDPRLWCSLGDVTINDSCYEKALEVSNDKSVRAKRALARSAYNRGDFEKSKMLWEAAMALNSLYPDGWFALGAAALKARDVQKALDAFTFAVQLDPDNGEAWNNIACLHMIKKKSKESFIAFKEALKFKRDSWQMWENFSHVAMDVGNIDQAFEAIQQILKMSKNKRVDVVLLDRIMTELEKRNSACKSSSSSTETEASSDESTETKPCTATPAETQRQLELLGKVIQQIVKTESTAEIWGLYARWSRIKGDLTVCSEALLKQVRSYQGSEVWKDKERFKKFARASLELCRVYMEISASIGSKRELFTAEMHLKNTIKQATVSFLDSEELKELESCLEEVRNVMQKSEEEYRDTKT | failed
MVDTNHKIAFCIDSDGCAMDTMTYKHQLFFGPIAADIFGISEQERTSFLKEWDRVNLYSRTRGVNRFVGLVMGLEFAGVEHIDKLKEWVETTDSLSNNSLELALANDFSRDLEKALEWSNEVNRQIKNYEGDSLAFSGVLESLERLSQFGNVYVVSSANKEAVWQEWEEQGLLKYVDDIYCQDRGKKEDVIATLIASGYCRETILMVGDSLGDLAAAEQNGIAFYPVLVGKEVKSWEILREDIGEAFAKGQFEQQRQKESINTFWANLDN | failed
MVEASFGYEDFIVRMATGLLVGALIGIERERAQLVGKSEKSGSIPGFRSMGFMGLYGSATGYVSSYTASQYGVVFAALIAGLGAATITLLTLLFAYTRMIRLRAMGFTTYVVILLTFVAGLMSGMGLILEGVAVGVIGGLLLASKYPVVRMTRSVSYSELIALMEVAALILVLGPAVYYAGGYIPFIDVFQVYIFFTAIVAVSFTSYIASRIWGVRGFVTSIILGSIVNSEAVVASIASRRDIDRGVVFQAVVAALSVMQLRIAGLGLLALLVGGGFPQGEVVLHFRDNILPWLILLALMTIASIVAWASTLALEKVENKGVIPGTPLQWGVAVRGAVAFLLLTLLFDAASRALSGYTGNIAFLTLSIIGGFISANATLLSLAGLLTRLGADTFTVGILGIALGATFNKILYTRAVGAPPETVKEITKATALMSLLPVFFLILFWLLLQTPTG | failed
MVEGSQEAKVAEILQKMEEMIGEEPKPQKLFSKVAPEWLERQMDERQFVMSLESIPEKYKHLIMIAVAAAVGSKMCTEVFTKIAKRRGVSEREIGEAILVARFALASTIFATVTPALEWLEGGDEE | failed
MVEKGKMVKISYDGYVDGKLFDTTNEELAKKEGIYNPAMIYGPVAIFAGEGQVLPGLDEAILEMDVGEEREVVLPPEKAFGKRDPSKIKLIPLSEFTKRGIKPIKGLTITIDGIPGKIVSINSGRVLVDFNHELAGKEVKYRIKIEEVVDDKKNIVKEIVKMYVPRLSDVKVTIRNGTVKIELPEFAPFIPNIQTAKMAIANEILKRLEDAEKVSFVETFERKKETKEENK | failed
MVEPMTPRFKYTKASQENIQQLGNILEQCFVMSFGDSEIYVKGIGLENFRVIYREQKVAGGLAILPMGQWWGGQRVPMAGIAAVGIAPEYRGDGAAIALIQHTLQEISEQDIPISVLYPATQRLYRKAGYEQAGSSCVWEIPTDSIQIQHASLPLEPVVLKNNPIFHELYQQQAQLTHGYLDRHPAIWQGLNRTLDTETLYSYLIGDKDKPQGYIIFTQERTRDGSILRIRDWVTLSNPAVQSFWTFIANHRSQIDKVTWKSSVIDALTLLLPEQSATIRSQDRWMLRIVNVCKALEARGYPLGVEAELHLEVQDDLLATNQGKFILSVANGKSEVTKGGKGELQLDIKGLASLYTSLFTPRQLQLTGKLQATETALLKATQIFAGESPWMIDFF | not failed
MVERVASSEVANRLNEWYDTIKRQDIKKAAILKHDLQKAMDDMEEDQNVLLYYNLIDSRYKLLLEQYDESGTILESLKDQTERADTDNLLQYYYYFFSGLYEFNMNNFTHAIRLYHKAENHLTTIPDEIEHAEFHFQLAVAYQSIDQSFFSINHAEKALDIYLKQENYVSRIALTQMIIAANKLDLNQYLAAEKLYKKAILIAVDSNQTFIELLGYYNLGLCYEVQEKLEQARDCFEKALDFNFPQENKKETYLRIKYMLARVLFKMGFLQEGVKWFEDAVQLANETNDKIYQVKLQIIHAVYFDQKELSIDEGLKVLKEQSLWHDVEDLSFIAARFYKKEGFYQLASKYYEEGLNAQQKIPSLYEEVGSA | failed
MVESKRTWKEKVHVESQVEERLRKNLTLKSREATKLQKKALKTTKKEFKLSKKNYKQSLKKHKLTLKTGKEPLSINHLLDKKKFVEQKKRKKAQKIAYKRTKKVDETRVVNQVKRETKEGLKREATQKVRTTLTQEDTLNEAMTLYEKTQQAKFNMRTALKTGKTVKNLSVKTAKDTYGLGNRLFNFSRGRGFQRTPKDFTLKKQLMKQLRNRAMRFKAAKEAKKAEQGIGLIRSFFNGQKTLGKVAALILKNPISWVVLLVLFLVFLLSGVASSTQKPAIVQEEEDLTASWTYFTKLDAQHTDDNNLFYSNIDDVLFYMNYRYDDFKLLDMDSTGTKNFETILSELWTALNGKKPDYQLKTMQSLETDKKSSYFIEEEQAKHYQEIKKELGYQTLDDLLSFPVKTDALIVNKRYGYDKSKEKLTLYKGIDVLIEDNQPFHSPMNGQIVSVPDTETLVIEKEKVARLTIRGVNTLRLTKGMDVEEGTFLGNTKNSTVTFQYEKYKKETKDWFFVNPAFYFPRVTYTQTTLLGSAEFSPGASVEKRAQAVYDYLSKKGYTKEGISAILGNFSVESGINPKRAEGDYLNPPVGAHGNSWDEPSWLAMGGPQIYGGRFPNILHRGLGLGQWTDTADGGRRHTLLLDYAKGKNKKWYDLQLQLDFIFDGDAPGSRTAADNVARSKVAATIPELTTYYLTVWEGNPGDKLGERIQAAQNWFTFFSRSGTPIGGSGSEVFAQYKEKMQPLPTDRETKAGQGWPGNAYAPGNCTWYVFNRFAQLGKSIYPTMGNANQWVHNYSQTPGATLESAPKKGDAVIFTNGVAGSSTQYGHVAYVEHVNSDGSFVISEMNVSGEYSMNWRVLKKEAGEYFMRLN | failed
MVFFHKKIILNFIYSLMVAFLSHGVLLKADGMAKKQTLLVGERLVWDKLTLLGFLEKNHIPQKLYYNLSSQDKELSAEIQSNVTYYTLRDANNTLIQALIPISQDLQIHIYKKGEDYFLDFIPIIFTRKEKTLLLSLQTSPYQDIIKATNDPLLANQLMNAYKKSVPFKRLVKNDKIAIVYTRDYRVGQAFGQPTIKMAMVSSRSNQYYLFSHSNGHYYDSKAQEVAGFLLETPVKYTRISSPFSYGRFHPVLKVRRPHYGVDYAAKHGSLIHSASDGRVGFMGVKAGYGKVVEIHLNELRLVYAHMSAFANGLKKGSFVKKGQIIGRVGSTGLSTGPHLHFGVYKNSRPINPLGYIRTAKSKLHGKQREVFLEKAQRSKQKLEELLKTHSFEKNSFYLLEGF | failed
MVFIDNLGLMLFILPLVSVLIAYTTVQAFIGFRKTGYEAIKRSLDDSILPAAILGTIIIILSLWGEFSWTLPGSYNILFYDVYLLLGITILSYSVTVYMGKRLQSTGIFALFVGLITIYYGASGYNLGLTKEPLALLALYTTYGIAGILGYPVTLALDRLRDQQGVKDPKLEGWMYAFFILFWIFVIIAGIIGAFIAVETIPAHLAHPP | failed
MVFIWSLIFIVILSVVFTTNIKKNYKGWYALASFISILVSIYEVMRIVSHPKLNGVILSIEQAFMKGNVAIAFFILVMFAGALSTKQVIGKKLMSIRAELAILGSILILPHGIIYFVRFLIIKLPKILNGKANATLYLIYISIGIIAFIIMIPLFITSFKSVRKRLGGFRWKKLHRWSYVFYCLIYLHIILALLNGKINFIKIILYTFIFMVYTVMKFIKHRNIKLRRKS | failed
